Here are results for 22 substances from patent US20190142860A1, “NUCLEIC ACID BASED TIA-1 INHIBITORS” (Aquinnah Pharmaceuticals, Inc., priority 2015, published 2019).

The target of test [1] is Nucleolysin TIA-1 (endogenous mouse TIA1) (mouse) (UniProt P52912). The test can be described thus: TIA1 IP-MS, WT1 cortex.
Test [2] shares this target. The experiment in a line: TIA1 IP-MS, WT2 cortex.
The target is the same in test [3]. The experiment in a line: TIA1 IP-MS, WT3 cortex.
Test [4] has the same target. The experiment in a line: TIA1 IP-MS, tau KO 1 cortex.
The target is the same in test [5]. The experiment in a line: TIA1 IP-MS, tau KO 2 cortex.
Test [6] has the same target. The test can be described thus: TIA1 IP-MS, tau KO 3 cortex.

Sequence of UniProt P52912 (P52912 whole entry): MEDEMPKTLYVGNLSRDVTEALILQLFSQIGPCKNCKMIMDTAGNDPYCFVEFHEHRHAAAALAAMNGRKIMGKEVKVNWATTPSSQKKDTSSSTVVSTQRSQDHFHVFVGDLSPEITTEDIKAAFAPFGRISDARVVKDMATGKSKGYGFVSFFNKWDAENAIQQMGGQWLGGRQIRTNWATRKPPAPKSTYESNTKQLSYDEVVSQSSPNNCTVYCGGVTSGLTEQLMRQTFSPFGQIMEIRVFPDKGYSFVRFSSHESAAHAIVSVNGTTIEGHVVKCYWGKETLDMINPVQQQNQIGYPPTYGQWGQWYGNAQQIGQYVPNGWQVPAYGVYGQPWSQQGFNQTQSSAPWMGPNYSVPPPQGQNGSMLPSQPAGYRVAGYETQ

For the substance “Isoform Glt-1A of Excitatory amino acid transporter 2 (from UniProt P43006 1-569)”, the total ion current (normalized to TIA1 = 1000) in test [1] amounted to 0; in test [2] it was 187; in test [3], 298; in test [4], 0; in test [5], 96.4; in test [6], 0.
As for “Isoform I of Septin-6 (from UniProt Q9R1T4 2-427)”, the total ion current (normalized to TIA1 = 1000) was 0 in test [1]; 53.3 in test [2]; 0 in test [3]; 0 in test [4]; 35.6 in test [5]; 0 in test [6].
Take “Isoform M1 of Pyruvate kinase PKM (from UniProt P52480 1-531)”: the total ion current (normalized to TIA1 = 1000) in test [1] came out at 0; in test [2], 1130; in test [3], 722; in test [4], 0; in test [5], 891; in test [6], 0.
As for “Isoform Mt-VDAC1 of Voltage-dependent anion-selective channel protein 1 (from UniProt Q60932 2-283)”, the total ion current (normalized to TIA1 = 1000) in test [1] is 0; in test [2], 184; in test [3], 101; in test [4], 0; in test [5], 0; in test [6], 0.
For “Isovaleryl-CoA dehydrogenase, mitochondrial (from UniProt Q9JHI5 31-424)”, the total ion current (normalized to TIA1 = 1000) in test [1] turned out to be 7.28; in test [2], 0; in test [3], 0; in test [4] it was 5.22; in test [5] it was 0; in test [6] it was 0.
Turning to “Ketimine reductase mu-crystallin (from UniProt O54983 1-313)”, the total ion current (normalized to TIA1 = 1000) in test [1] came to 8.5; in test [2] it was 0; in test [3] it was 0; in test [4] it was 0; in test [5] it was 0; in test [6], 0.
Take “LanC-like protein 1 (from UniProt O89112 2-399)”: the total ion current (normalized to TIA1 = 1000) amounted to 0 in test [1]; 0 in test [2]; 218 in test [3]; 0 in test [4]; 97.8 in test [5]; 0 in test [6].
Consider “Leucine-rich repeat-containing protein 59 (from UniProt Q922Q8 1-307)”, for which the total ion current (normalized to TIA1 = 1000) in test [1] was found to be 0; in test [2], 408; in test [3] it was 0; in test [4] it was 10.6; in test [5], 0; in test [6] it was 0.
For the substance “Malate dehydrogenase, cytoplasmic (from UniProt P14152 2-334)”, the total ion current (normalized to TIA1 = 1000) in test [1] amounted to 0; in test [2], 189; in test [3], 31.7; in test [4], 0; in test [5], 81.6; in test [6], 0.
In the case of “Malate dehydrogenase, mitochondrial (from UniProt P08249 25-338)”, the total ion current (normalized to TIA1 = 1000) is 0 in test [1]; 819 in test [2]; 131 in test [3]; 0 in test [4]; 477 in test [5]; 0 in test [6].
For “Microtubule-associated protein 6 (from UniProt Q7TSJ2 1-906)”, the total ion current (normalized to TIA1 = 1000) in test [1] was found to be 0; in test [2] it was 116; in test [3], 0; in test [4], 0; in test [5], 36.1; in test [6], 0.
As for “Mitochondrial glutamate carrier 1 (from UniProt Q9D6M3 1-323)”, the total ion current (normalized to TIA1 = 1000) in test [1] is 0; in test [2], 136; in test [3] it was 85; in test [4] it was 0; in test [5], 12.2; in test [6], 0.
Turning to “Mitogen-activated protein kinase 1 (from UniProt P63085 2-358)”, the total ion current (normalized to TIA1 = 1000) in test [1] amounted to 0; in test [2], 112; in test [3], 0; in test [4] it was 0; in test [5], 72.4; in test [6] it was 141.
Regarding “Myelin-oligodendrocyte glycoprotein (from UniProt Q61885 29-246)”, the total ion current (normalized to TIA1 = 1000) came to 0 in test [1]; 133 in test [2]; 607 in test [3]; 0 in test [4]; 76 in test [5]; 0 in test [6].
Regarding “NADH dehydrogenase [ubiquinone] flavoprotein 1, mitochondrial (from UniProt Q91YT0 21-464)”, the total ion current (normalized to TIA1 = 1000) in test [1] stood at 0; in test [2], 179; in test [3] it was 0; in test [4], 0; in test [5], 0; in test [6] it was 0.
In the case of “NADH dehydrogenase [ubiquinone] iron-sulfur protein 2, mitochondrial (from UniProt Q91WD5 34-463)”, the total ion current (normalized to TIA1 = 1000) in test [1] was 0; in test [2], 137; in test [3] it was 0; in test [4], 0; in test [5] it was 27; in test [6], 0.
As for “NADH dehydrogenase [ubiquinone] iron-sulfur protein 3, mitochondrial (from UniProt Q9DCT2 36-263)”, the total ion current (normalized to TIA1 = 1000) came out at 0 in test [1]; 366 in test [2]; 60.8 in test [3]; 0 in test [4]; 36.9 in test [5]; 0 in test [6].
Turning to “Nascent polypeptide-associated complex subunit alpha, muscle-specific form (from UniProt P70670 1-2187)”, the total ion current (normalized to TIA1 = 1000) in test [1] was 0; in test [2] it was 98.9; in test [3] it was 0; in test [4] it was 10.5; in test [5], 0; in test [6], 474.
As to “Nicotinamide phosphoribosyltransferase (from UniProt Q99KQ4 1-491)”, the total ion current (normalized to TIA1 = 1000) turned out to be 0 in test [1]; 0 in test [2]; 0 in test [3]; 0 in test [4]; 0 in test [5]; 1570 in test [6].
With “PH and SEC7 domain-containing protein 3 (from UniProt Q2PFD7 1-1037)”, the total ion current (normalized to TIA1 = 1000) came to 0 in test [1]; 555 in test [2]; 0 in test [3]; 0 in test [4]; 133 in test [5]; 0 in test [6].
As for “Phosphatidylinositol 5-phosphate 4-kinase type-2 gamma (from UniProt Q91XU3 2-421)”, the total ion current (normalized to TIA1 = 1000) amounted to 0 in test [1]; 36.6 in test [2]; 0 in test [3]; 0 in test [4]; 0 in test [5]; 0 in test [6].
“Phytanoyl-CoA hydroxylase-interacting protein (from UniProt Q8K0S0 1-330)”: the total ion current (normalized to TIA1 = 1000) in test [1] was 0; in test [2] it was 17.1; in test [3], 0; in test [4] it was 0; in test [5], 54.7; in test [6], 0.
